Results on three substances are retold here after patent US20020151463A1.

Test [1] addresses HEK-293 clones transfected with hMC1R, hMC3R or hMC5R. The test is described as follows: radioligand binding with 125I-NDP-α-MSH on transfected HEK-293 clones.
In test [2] the target is murine MSH receptor (mouse) (UniProt Q01727). The test is described as follows: competition binding of cold ACTH against 125I-ACTH1-39 on Cloudman M-3 melanoma cells.
Another test addresses rat MC3-R (rat) (UniProt P32244). The test is described as follows: cell-based or functional assay.

Sequence of rat MC3-R (rat) (P32244 whole entry): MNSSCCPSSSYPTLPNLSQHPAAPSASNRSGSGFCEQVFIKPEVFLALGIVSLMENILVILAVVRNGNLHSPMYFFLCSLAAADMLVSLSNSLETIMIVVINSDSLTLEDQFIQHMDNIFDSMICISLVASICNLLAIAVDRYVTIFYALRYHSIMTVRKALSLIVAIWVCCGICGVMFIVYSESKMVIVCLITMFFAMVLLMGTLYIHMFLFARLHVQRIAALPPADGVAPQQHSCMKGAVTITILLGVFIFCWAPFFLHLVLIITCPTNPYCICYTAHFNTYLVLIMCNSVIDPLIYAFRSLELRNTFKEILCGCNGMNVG
Sequence of murine MSH receptor (mouse) (Q01727 whole entry): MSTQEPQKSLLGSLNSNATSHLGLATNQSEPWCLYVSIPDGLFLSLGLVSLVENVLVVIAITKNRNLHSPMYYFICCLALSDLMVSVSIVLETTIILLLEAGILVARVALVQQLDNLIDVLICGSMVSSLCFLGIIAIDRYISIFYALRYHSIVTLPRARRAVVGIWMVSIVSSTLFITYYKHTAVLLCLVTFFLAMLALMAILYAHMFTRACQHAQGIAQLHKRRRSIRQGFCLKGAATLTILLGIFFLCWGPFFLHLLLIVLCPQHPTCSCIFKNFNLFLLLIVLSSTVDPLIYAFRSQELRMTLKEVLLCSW
Sequence of adrenocorticotropic hormone (unlabelled) (peptide) (P01189 138-176): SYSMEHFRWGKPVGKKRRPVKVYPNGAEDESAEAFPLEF

As a reminder, the Ki is the dissociation constant of the complex between target and ligand, obtained from inhibition or displacement. A higher Ki goes with a looser hold on the target. In test [1], “125I-labeled Nle,D-Phe (NDP)-α-MSH (from UniProt P01189 138-150) (peptide)” returned a Ki of 0.11 to 0.58 nM.
A word on the Kd: it is the free concentration of one partner at which half of the binding sites on the other are occupied at equilibrium, for simple one-to-one binding. The low end stands for higher affinity, the high end for lower affinity. Consider “adrenocorticotropic hormone (unlabelled) (peptide)”, for which the Kd in test [2] was determined as 63 nM.
As to “α-melanocyte-stimulating hormone (from UniProt P01189 138-150) (peptide)”, in the test with rat MC3-R (rat), the EC50 for adenylyl cyclase activation, rat MC3-R in 293 cells, α-MSH alone was found to be 4.2 nM and the EC50 for adenylyl cyclase activation, rat MC3-R in 293 cells, α-MSH plus 0.7 nM murine agouti was 4.1 nM.
